Test results: patent US20070010016A1

Molecular target: Adenovirus 5 receptor (on HeLa cells)
Experiment: cell-based or functional assay

Adenovirus 5 fiber protein (from UniProt P11818 1-581)
transduction of HeLa cells with Av1LacZ4 in the presence of competitor (beta-galactosidase positive cells, percent of control): 0.1 to 1 mug/ml
